From patent US20180155451A1 (published 2018) come the findings set out here.

T1: FcγRIIa H (FcγRIIa, type H allotype, His at position 131), extracellular domain with C-terminal His tag (human, UniProt P12318 34-217)
T1 construct: extracellular domain; Soluble receptor expressed in FreeStyle293 cells; analyte in Biacore; also called FcgRIIa H; 2aH; not shown: C-terminal His tag
T1 sequence (looked up): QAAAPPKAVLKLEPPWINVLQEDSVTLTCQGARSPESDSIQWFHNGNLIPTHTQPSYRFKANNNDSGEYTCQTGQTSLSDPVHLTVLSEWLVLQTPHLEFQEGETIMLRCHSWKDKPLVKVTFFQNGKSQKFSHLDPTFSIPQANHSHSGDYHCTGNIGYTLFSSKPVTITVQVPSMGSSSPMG

T2: FcγRIIb, extracellular domain with C-terminal His tag (human, UniProt P31994 43-217)
T2 construct: extracellular domain; Soluble receptor expressed in FreeStyle293 cells; analyte in Biacore; also called FcgRIIb; 2b; not shown: C-terminal His tag
T2 sequence (looked up): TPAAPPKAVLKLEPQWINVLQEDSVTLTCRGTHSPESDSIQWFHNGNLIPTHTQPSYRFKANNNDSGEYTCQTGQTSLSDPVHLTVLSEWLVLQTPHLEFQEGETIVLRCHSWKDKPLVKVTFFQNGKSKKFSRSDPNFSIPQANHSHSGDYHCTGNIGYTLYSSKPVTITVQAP

T3: FcγRIIb (human, UniProt P31994 43-217)
T3 construct: extracellular domain; Soluble extracellular domain with C-terminal His tag, used as analyte in Biacore; also called FcgRIIb; 2b; not shown: His tag attached to the C terminus
T3 sequence (looked up): T2 sequence (looked up)

B1: GpH7-A5/GpH7-B3 variant S298_10E/GpL16-k0 (antibody, human IgG1, kappa)
heavy 1: not shown
heavy 2: not shown
light: DIVMTQSPLSLPVTPGEPASISCQASESLVHSNRNTYLHWYLQKPGQSPQLLIYKVSNRFSGVPDRFSGSGSGTDFTLKISRVEAEDVGVYYCSQNTHVPPTFGQGTKVEIERTVAAPSVFIFPPSDEQLKSGTASVVCLLNNFYPREAKVQWKVDNALQSGNSQESVTEQDSKDSTYSLSSTLTLSKADYEKHKVYACEVTHQGLSSPVTKSFNRGEC
notes: Heterodimerized IgG1; mutation only in the GpH7-B3 chain; also called He Ab
B2: GpH7-A5/GpH7-B3 variant Y300_08L/GpL16-k0 (antibody, human IgG1, kappa)
heavy 1: not shown
heavy 2: not shown
light: B1 light
notes: as for B1
B3: GpH7-A5/GpH7-B3 variant S298_16H/GpL16-k0 (antibody, human IgG1, kappa)
heavy 1: not shown
heavy 2: not shown
light: B1 light
notes: as for B1
B4: GpH7-A5/GpH7-B3 variant Y300_01G/GpL16-k0 (antibody, human IgG1, kappa)
heavy 1: not shown
heavy 2: not shown
light: B1 light
notes: as for B1
B5: GpH7-A5/GpH7-B3 variant Y300_07I/GpL16-k0 (antibody, human IgG1, kappa)
heavy 1: not shown
heavy 2: not shown
light: B1 light
notes: as for B1
B6: GpH7-A5/GpH7-B3 variant S298_19Q/GpL16-k0 (antibody, human IgG1, kappa)
heavy 1: not shown
heavy 2: not shown
light: B1 light
notes: as for B1
B7: GpH7-A5/GpH7-B3 variant S298_20W/GpL16-k0 (antibody, human IgG1, kappa)
heavy 1: not shown
heavy 2: not shown
light: B1 light
notes: as for B1
B8: GpH7-A5/GpH7-B3 variant S298_14T/GpL16-k0 (antibody, human IgG1, kappa)
heavy 1: not shown
heavy 2: not shown
light: B1 light
notes: as for B1
B9: GpH7-A5/GpH7-B3 variant S298_18N/GpL16-k0 (antibody, human IgG1, kappa)
heavy 1: not shown
heavy 2: not shown
light: B1 light
notes: as for B1
B10: GpH7-A5/GpH7-B3 variant Y300_02A/GpL16-k0 (antibody, human IgG1, kappa)
heavy 1: not shown
heavy 2: not shown
light: B1 light
notes: as for B1
B11: GpH7-A5/GpH7-B3 variant Y300_11K/GpL16-k0 (antibody, human IgG1, kappa)
heavy 1: not shown
heavy 2: not shown
light: B1 light
notes: as for B1
B12: GpH7-A5/GpH7-B3 variant Y300_06M/GpL16-k0 (antibody, human IgG1, kappa)
heavy 1: not shown
heavy 2: not shown
light: B1 light
notes: as for B1
B13: GpH7-A5/GpH7-B3 variant Y300_03V/GpL16-k0 (antibody, human IgG1, kappa)
heavy 1: not shown
heavy 2: not shown
light: B1 light
notes: as for B1
B14: GpH7-A5/GpH7-B3 variant S239_03V/GpL16-k0 (antibody, human IgG1, kappa)
heavy 1: not shown
heavy 2: not shown
light: B1 light
notes: Heterodimerized IgG1; mutation in the GpH7-B3 H chain only; also called He Ab
B15: GpH7-A5/GpH7-B3 variant S239_06M/GpL16-k0 (antibody, human IgG1, kappa)
heavy 1: not shown
heavy 2: not shown
light: B1 light
notes: as for B14
B16: GpH7-A5/GpH7-B3 variant N325_06M/GpL16-k0 (antibody, human IgG1, kappa)
heavy 1: not shown
heavy 2: not shown
light: B1 light
notes: as for B14
B17: GpH7-A5/GpH7-B3 variant A327_01G/GpL16-k0 (antibody, human IgG1, kappa)
heavy 1: not shown
heavy 2: not shown
light: B1 light
notes: as for B14
B18: GpH7-A5/GpH7-B3 variant N325_04F/GpL16-k0 (antibody, human IgG1, kappa)
heavy 1: not shown
heavy 2: not shown
light: B1 light
notes: as for B14
B19: GpH7-A5/GpH7-B3 variant G236_10E/GpL16-k0 (antibody, human IgG1, kappa)
heavy 1: not shown
heavy 2: not shown
light: B1 light
notes: as for B14
B20: GpH7-A5/GpH7-B3 variant G237_13S/GpL16-k0 (antibody, human IgG1, kappa)
heavy 1: not shown
heavy 2: not shown
light: B1 light
notes: as for B14
B21: GpH7-A5/GpH7-B3 variant N325_03V/GpL16-k0 (antibody, human IgG1, kappa)
heavy 1: not shown
heavy 2: not shown
light: B1 light
notes: as for B14
B22: GpH7-A5/GpH7-B3 variant L234_20W/GpL16-k0 (antibody, human IgG1, kappa)
heavy 1: not shown
heavy 2: not shown
light: B1 light
notes: as for B14
B23: GpH7-A5/GpH7-B3 variant P238_19Q/GpL16-k0 (antibody, human IgG1, kappa)
heavy 1: not shown
heavy 2: not shown
light: B1 light
notes: as for B14
B24: GpH7-A5/GpH7-B3 variant N325_07I/GpL16-k0 (antibody, human IgG1, kappa)
heavy 1: not shown
heavy 2: not shown
light: B1 light
notes: as for B14
B25: GpH7-A5/GpH7-B3 variant P238_16H/GpL16-k0 (antibody, human IgG1, kappa)
heavy 1: not shown
heavy 2: not shown
light: B1 light
notes: as for B14
B26: GpH7-A5/GpH7-B3 variant S239_05P/GpL16-k0 (antibody, human IgG1, kappa)
heavy 1: not shown
heavy 2: not shown
light: B1 light
notes: as for B14
B27: GpH7-A5/GpH7-B3 variant L235_04F/GpL16-k0 (antibody, human IgG1, kappa)
heavy 1: not shown
heavy 2: not shown
light: B1 light
notes: as for B14
B28: GpH7-A5/GpH7-B3 variant N325_08L/GpL16-k0 (antibody, human IgG1, kappa)
heavy 1: not shown
heavy 2: not shown
light: B1 light
notes: as for B14
B29: GpH7-A5/GpH7-B3 variant N325_01G/GpL16-k0 (antibody, human IgG1, kappa)
heavy 1: not shown
heavy 2: not shown
light: B1 light
notes: as for B14
B30: GpH7-A5/GpH7-B3 variant P238_20W/GpL16-k0 (antibody, human IgG1, kappa)
heavy 1: not shown
heavy 2: not shown
light: B1 light
notes: as for B14

One assay deals with T1, FcγRIIa H (FcγRIIa, type H allotype, …). In words: ratio of He/Con_2aH to He/Con_2b (FcγRIIa H over FcγRIIb), SPR.
B1: the “He_2aH/2b (IIaH/IIb)” value is 1.22.
For the molecule B2, the “He_2aH/2b (IIaH/IIb)” value was 1.47.
On the same count and under the same terms, the result for B3 reads 1.29.
Turning to B4, the “He_2aH/2b (IIaH/IIb)” value came to 1.54.
On the same count and under the same terms, the result for B5 reads 1.45; that for B6, 1.24.
In the case of B7, the “He_2aH/2b (IIaH/IIb)” value stood at 1.21.
Still for that read-out and setting: the result for B8 reads 1.26; that for B9, 1.28.
The same measure, in the same setting: the value for B10 was 1.35; that for B11 was 1.3; that for B12 was 1.24.
On the same count and under the same terms, the value for B13 was 1.33.

The next assay concerns the target T2, FcγRIIb, extracellular domain with …. Description: SPR (Biacore), captured antibody, FcγR as analyte. On the technique in general: In SPR one partner is held on a chip, and binding of the other changes the refractive index at the surface.
In the case of B1, the He/Con_2b is 47.6 relative, GpH7-A5/GpH7-B3/GpL16-k0 = 100.
For the molecule B2, the He/Con_2b was 73.6 relative, GpH7-A5/GpH7-B3/GpL16-k0 = 100.
The same measure, in the same setting: the value for B3 was 63.5 relative, GpH7-A5/GpH7-B3/GpL16-k0 = 100; that for B4 was 48.4 relative, GpH7-A5/GpH7-B3/GpL16-k0 = 100.
B5: the He/Con_2b was 74.5 relative, GpH7-A5/GpH7-B3/GpL16-k0 = 100.
The same measure, in the same setting: the result for B6 reads 73.3 relative, GpH7-A5/GpH7-B3/GpL16-k0 = 100.
Same read-out and setting: the result for B7 reads 41.1 relative, GpH7-A5/GpH7-B3/GpL16-k0 = 100.
For B8, the He/Con_2b was 77.9 relative, GpH7-A5/GpH7-B3/GpL16-k0 = 100.
As for B9, the He/Con_2b was 48.1 relative, GpH7-A5/GpH7-B3/GpL16-k0 = 100.
Same read-out and setting: the result for B10 reads 69.2 relative, GpH7-A5/GpH7-B3/GpL16-k0 = 100; that for B11, 51.6 relative, GpH7-A5/GpH7-B3/GpL16-k0 = 100; that for B12, 84.3 relative, GpH7-A5/GpH7-B3/GpL16-k0 = 100.
On the same count and under the same terms, the result for B13 reads 73.9 relative, GpH7-A5/GpH7-B3/GpL16-k0 = 100.

The target of the next assay is T1, FcγRIIa H (FcγRIIa, type H allotype, …). In words: SPR (Biacore), captured antibody, FcγR as analyte.
For B1, the He/Con_2aH is 58 relative, GpH7-A5/GpH7-B3/GpL16-k0 = 100.
The same measure, in the same setting: the result for B2 reads 108 relative, GpH7-A5/GpH7-B3/GpL16-k0 = 100.
Still for that read-out and setting: the result for B3 reads 82.1 relative, GpH7-A5/GpH7-B3/GpL16-k0 = 100; that for B4, 74.4 relative, GpH7-A5/GpH7-B3/GpL16-k0 = 100.
Same read-out and setting: the value for B5 was 108 relative, GpH7-A5/GpH7-B3/GpL16-k0 = 100.
With B6, the He/Con_2aH is 91 relative, GpH7-A5/GpH7-B3/GpL16-k0 = 100.
Take B7: the He/Con_2aH was 49.9 relative, GpH7-A5/GpH7-B3/GpL16-k0 = 100.
On the same count and under the same terms, the value for B8 was 98.5 relative, GpH7-A5/GpH7-B3/GpL16-k0 = 100.
Take B9: the He/Con_2aH was 61.6 relative, GpH7-A5/GpH7-B3/GpL16-k0 = 100.
As to B10, the He/Con_2aH was 93.5 relative, GpH7-A5/GpH7-B3/GpL16-k0 = 100.
On the same count and under the same terms, the result for B11 reads 66.9 relative, GpH7-A5/GpH7-B3/GpL16-k0 = 100; that for B12, 105 relative, GpH7-A5/GpH7-B3/GpL16-k0 = 100.
Still for that read-out and setting: the value for B13 was 98 relative, GpH7-A5/GpH7-B3/GpL16-k0 = 100.

For a further assay, the target named is T4, FcγRIa (human, UniProt P12314 16-292).
T4 construct: extracellular domain; Soluble extracellular domain with C-terminal His tag, used as analyte in Biacore; also called FcgRI; 1a; not shown: His tag attached to the C terminus
T4 sequence (P12314 16-292): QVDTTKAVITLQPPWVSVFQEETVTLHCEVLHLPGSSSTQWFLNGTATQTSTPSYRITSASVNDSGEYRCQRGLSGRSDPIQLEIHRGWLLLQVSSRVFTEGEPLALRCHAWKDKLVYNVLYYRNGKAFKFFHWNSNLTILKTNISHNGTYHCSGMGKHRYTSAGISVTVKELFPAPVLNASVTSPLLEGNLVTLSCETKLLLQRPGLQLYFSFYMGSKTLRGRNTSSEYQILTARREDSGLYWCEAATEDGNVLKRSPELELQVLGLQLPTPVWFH
In words: SPR (Biacore), antibody captured on antigen peptide, FcγR as analyte; relative to GpH7-A5/GpH7-B3/GpL16-k0 = 100.
In the case of B14, the He/Con_1a was 95.9 % of control.
On the same count and under the same terms, the value for B15 was 99 % of control; that for B16 was 97.6 % of control.
The same measure, in the same setting: the result for B17 reads 99 % of control.
Still for that read-out and setting: the result for B18 reads 93.2 % of control; that for B19, 93.7 % of control.
Consider B20, for which the He/Con_1a was 92.2 % of control.
In the case of B21, the He/Con_1a is 95.6 % of control.
The same measure, in the same setting: the result for B22 reads 98.6 % of control; that for B23, 97.6 % of control; that for B24, 94.8 % of control.
The same measure, in the same setting: the result for B25 reads 96 % of control.
As to B26, the He/Con_1a is 85.3 % of control.
On the same count and under the same terms, the result for B27 reads 97.1 % of control; that for B28, 97.5 % of control; that for B29, 97.1 % of control.
The same measure, in the same setting: the result for B30 reads 99.9 % of control.

In a further assay the target is T3, FcγRIIb. The assay is described as above.
B14: the He/Con_2b was 108 % of control.
Still for that read-out and setting: the result for B15 reads 101 % of control; that for B16, 217 % of control.
The same measure, in the same setting: the result for B17 reads 116 % of control.
Same read-out and setting: the value for B18 was 143 % of control; that for B19 was 110 % of control.
In the case of B20, the He/Con_2b is 111 % of control.
Same read-out and setting: the result for B21 reads 111 % of control; that for B22, 114 % of control.
The same measure, in the same setting: the result for B23 reads 110 % of control.
Same read-out and setting: the result for B24 reads 171 % of control.
Consider B25, for which the He/Con_2b is 115 % of control.
For B26, the He/Con_2b was 102 % of control.
On the same count and under the same terms, the value for B27 was 118 % of control.
The same measure, in the same setting: the result for B28 reads 197 % of control; that for B29, 101 % of control.
Still for that read-out and setting: the value for B30 was 123 % of control.
